Measured values: paper doi:10.1101/2025.08.07.668011, “High-Speed AFM Reveals IDR-Mediated Structural Plasticity of EML4-ALK Modulated by ALK Inhibitors” (bioRxiv, 2025)
Several values for one entry are separate records, joined by “and”; a condition that tells them apart may be missing. Identical values can stand only once.

Biological target: the molecule itself
Assay: high-speed atomic force microscopy (HS-AFM); purified protein (approximately 3 nM) deposited on mica for 10 min, rinsed, imaged in 1/10 diluted PBS in tapping mode; oligomeric state from total pixel density, number of globules and behaviour in time-lapse images; molecules counted as monomer, dimer or trimer in broad fields; formation and dissociation seen in real time (reversible)

B1: EML4-ALK variant-1 (v1, E13:A20) (natural protein, human, UniProt Q9HC35 1-496, looked up)
chain: MDGFAGSLDDSISAASTSDVQDRLSALESRVQQQEDEITVLKAALADVLRRLAISEDHVASVKKSVSSKGQPSPRAVIPMSCITNGSGANRKPSHTSAVSIAGKETLSSAAKSGTEKKKEKPQGQREKKEESHSNDQSPQIRASPSPQPSSQPLQIHRQTPESKNATPTKSIKRPSPAEKSHNSWENSDDSRNKLSKIPSTPKLIPKVTKTADKHKDVIINQEGEYIKMFMRGRPITMFIPSDVDNYDDIRTELPPEKLKLEWAYGYRGKDCRANVYLLPTGKIVYFIASVVVLFNYEERTQRHYLGHTDCVKCLAIHPDKIRIATGQIAGVDKDGRPLQPHVRVWDSVTLSTLQIIGLGTFERGVGCLDFSKADSGVHLCIIDDSNEHMLTVWDWQKKAKGAEIKTTNEVVLAVEFHPTDANTIITCGKSHIFFWTWSGNSLTRKQGIFGKYEKPKFVQCLAFLGNGDVLTGDSGGVMLIWSKTTVEPTPGKGPKVYRRKHQELQAMQMELQSPEYKLSKLRTSTIMTDYNPNYCFAGKTSSISDLKEVPRKNITLIRGLGHGAFGEVYEGQVSGMPNDPSPLQVAVKTLPEVCSEQDELDFLMEALIISKFNHQNIVRCIGVSLQSLPRFILLELMAGGDLKSFLRETRPRPSQPSSLAMLDLLHVARDIACGCQYLEENHFIHRDIAARNCLLTCPGPGRVAKIGDFGMARDIYRASYYRKGGCAMLPVKWMPPEAFMEGIFTSKTDTWSFGVLLWEIFSLGYMPYPSKSNQEVLEFVTSGGRMDPPKNCPGPVYRIMTQCWQHQPEDRPNFAIILERIEYCTQDPDVINTALPIEYGPLVEEEEKVPVRPKDPEGVPPLLVSQQAKREEERSPAAPPPLPTTSSGKAAKKPTAAEISVRVPRGPAVEGGHVNMAFSQSNPPSELHKVHGSRNKPTSLWNPTYGSWFTEKPTKKNNPIAKKEPHDRGNLGLEGSCTVPPNVATGRLPGASLLLEPSSLTANMKEVPLFRLRHFPCGNVNYGYQQQGLPLEAATAPGAGHYEDTILKSKNSMNQPGP
notes: EML4, N-terminal part up to exon 13 (E13:A20): CC/TD domain, basic region, part of the TAPE domain (HELP, WD repeats); ALK, from exon 20 (A20) to the C-terminus, residues 1058-1620, holds the tyrosine kinase domain; ENLYFQ probably stays; also called EML4-ALK v1; source: Expi293F, transfected, purified (anti-FLAG M2 gel, TEV protease and His-tag beads, Superdex 200 SEC); not shown: His tag …
- ratio of dimers: 15%
- ratio of trimers: 9%
- stoichiometry N: 2 and 3
